Experimental data as given in patent publication US20130273053.

What was measured:
ST-pro-factor D-His = ST-pro-factor D-His (UniProt P00746)
purified plasma factor B = purified plasma factor B (UniProt P00751)
purified plasma factor B, sequence (P00751 26-764): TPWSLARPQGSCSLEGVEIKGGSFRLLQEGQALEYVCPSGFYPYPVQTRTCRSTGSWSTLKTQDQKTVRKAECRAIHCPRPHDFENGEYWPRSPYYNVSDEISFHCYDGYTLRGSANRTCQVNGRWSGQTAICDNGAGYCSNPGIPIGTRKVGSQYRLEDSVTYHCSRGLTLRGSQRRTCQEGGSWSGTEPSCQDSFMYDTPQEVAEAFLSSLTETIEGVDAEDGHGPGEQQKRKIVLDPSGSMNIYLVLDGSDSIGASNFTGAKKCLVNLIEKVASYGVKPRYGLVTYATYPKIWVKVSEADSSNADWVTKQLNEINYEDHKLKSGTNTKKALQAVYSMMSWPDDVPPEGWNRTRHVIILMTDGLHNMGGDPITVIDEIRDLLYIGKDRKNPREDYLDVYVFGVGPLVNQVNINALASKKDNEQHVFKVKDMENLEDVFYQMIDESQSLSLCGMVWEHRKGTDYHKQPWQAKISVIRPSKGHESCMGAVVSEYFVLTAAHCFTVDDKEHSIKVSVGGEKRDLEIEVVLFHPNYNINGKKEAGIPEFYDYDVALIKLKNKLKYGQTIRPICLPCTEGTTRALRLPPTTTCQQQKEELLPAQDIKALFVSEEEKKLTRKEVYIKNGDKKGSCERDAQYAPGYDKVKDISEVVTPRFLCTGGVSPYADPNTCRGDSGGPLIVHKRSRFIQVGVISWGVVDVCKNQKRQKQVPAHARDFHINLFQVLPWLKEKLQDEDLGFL

full length recombinant human MASP-3 (active), sequence (chain): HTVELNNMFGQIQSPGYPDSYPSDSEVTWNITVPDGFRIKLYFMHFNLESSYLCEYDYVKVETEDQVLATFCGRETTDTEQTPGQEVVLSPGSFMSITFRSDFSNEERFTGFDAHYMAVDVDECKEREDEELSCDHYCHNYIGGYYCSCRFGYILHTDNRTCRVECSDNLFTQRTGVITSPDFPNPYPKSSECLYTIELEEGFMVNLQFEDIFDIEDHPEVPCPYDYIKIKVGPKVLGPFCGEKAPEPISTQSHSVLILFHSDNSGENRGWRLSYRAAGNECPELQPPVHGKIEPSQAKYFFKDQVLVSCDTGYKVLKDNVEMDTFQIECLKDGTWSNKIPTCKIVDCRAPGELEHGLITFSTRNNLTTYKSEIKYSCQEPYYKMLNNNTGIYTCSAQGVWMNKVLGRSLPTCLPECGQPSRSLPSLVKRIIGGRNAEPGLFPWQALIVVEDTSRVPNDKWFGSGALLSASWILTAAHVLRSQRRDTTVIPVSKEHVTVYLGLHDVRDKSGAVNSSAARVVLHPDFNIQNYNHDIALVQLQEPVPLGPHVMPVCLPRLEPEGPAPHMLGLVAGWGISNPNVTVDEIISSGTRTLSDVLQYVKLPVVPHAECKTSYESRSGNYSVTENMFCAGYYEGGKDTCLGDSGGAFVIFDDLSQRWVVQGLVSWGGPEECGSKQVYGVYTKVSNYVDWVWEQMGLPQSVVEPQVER
ST-pro-factor D-His, sequence (P00746 21-253): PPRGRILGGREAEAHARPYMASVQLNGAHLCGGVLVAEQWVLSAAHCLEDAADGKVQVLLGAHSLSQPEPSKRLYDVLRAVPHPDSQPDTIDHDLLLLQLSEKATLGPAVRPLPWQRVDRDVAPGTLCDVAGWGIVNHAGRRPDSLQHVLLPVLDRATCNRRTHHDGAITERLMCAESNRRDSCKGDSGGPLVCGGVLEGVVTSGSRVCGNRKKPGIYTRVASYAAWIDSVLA

full length recombinant human MASP-3 (active)
cleavage of pro-factor D substrate, Western blot (ST-pro-factor D-His): only full length MASP-3 (lane 2) and the MASP-1 CCP1-CCP2-SP) fragment (lane 5) cleaved ST-pro-factor D-His6 | cleavage of pro-factor D to factor D, Western blot, no mAb (ST-pro-factor D-His): MASP-3 cleaves approximately 50% of pro-factor D into factor D | factor B cleavage, Coomassie-stained SDS-PAGE, with C3(H2O) (purified plasma factor B): either MASP-3 or pro-factor D are able to mediate factor B cleavage, as long as C3 is present
